Experimental findings from article PMC12377726 (Proceedings of the National Academy of Sciences of the …, 2025) are described below.

To fix the notation:
B1: G001_gp1_V10_VRC01c_2021-0087 (antibody, V domains shown)
VH: QVQLVQSGAEVKKPGASVKVSCKASGYTFTGNYIHWVRQAPGQGLEWVGWLNPNSGGTNYAQQFQGRVTMTRDTSISTAYMELNRLRSDDTAVFYCARGLWQWEFRYWGQGTLVTVSS
VL: DIVLTQSPGTLSLSPGERATLSCRASQSVSSSNLAWYQQKPGQAPRLLIYGASSRATGIPDRFSGSGSGTDFTLTISRLEPEDCAVYYCQQYEGFGGGTKVEIK
notes: also called G001-0087
B2: G001_gp1_V10_VRC01c_179 (antibody, V domains shown)
VH: QVQLVQSGADVKKPGASVKVSCKASGYTFTDYYMHWVRQAPGQGLEWMGWINPNSGGTNYAQKFQDRVTMTRDTSVSTAYMEVSGLRSDDTAVYYCARIKLCNGGSCNWSLGYWGQGSLVTVSS
VL: DIQMTQSPSSLSASVGDRVTITCQASQDISNYLNWYQQKPGKAPKLLIYGASNLETGVPSRFSGSGSGTDFTFTISSLQPEDIATYYCQQYEFFGPGTKVDIK
notes: also called G001-179
B3: G001_LD_07A_VRC01c_58 (antibody, V domains shown)
VH: QVQLVQSGAEVRKPGASVKVSCKASGYTFTDYYIHWVRQAPGQGLEWMGWINPNSGGTNYAQKFQGWVTMTRDTSISTAHMELRRLRSDDRAVYYCARGVVHSGFEFGYWGQGTLVTVSS
VL: DIQMTQSPSTLSASVGDRVTITCRASQSISNWLAWYQQKPGKAPKLLIYKASSLESGVPSRFSGSGSGTEFTLTISSLQPDDFATYYCQQYETFGQGTKVEIK
notes: also called G001-58
B4: G001_LD_07A_VRC01c_59 (antibody, V domains shown)
VH: QVQLVQSGAEVKKPGTSVKVSCKASEYTFTGYYVHWVRQAPGQGLEWMGWINPNSGGTNYAQKFQGWVTMTRDTSISTAYMELSRLKSDDTAVYYCARSDYISSWYFGYWGQGTLVTVSS
VL: EIVMTQSPATLSVSPGERATLSCRASQSVSSNLAWYQQKPGQAPRLLIYGTSTRATGIPARFSGSGSGTEFTLTISSLQSEDFAVYYCQQYETFGQGTKVEIK
notes: also called G001-59
B5: G001_gp1_V10_VRC01c_2021-0126 (antibody, V domains shown)
VH: QVQLVQSGAEVKKPGASVKVSCKASESTFTDYYMHWVRQAPGQGLEWMGWMNPNSGGTNYALKFQGRVTMTRDTSISTAYMELSRLRSDDTAVYYCATKRRGTYFDQWGQGTLVTVSS
VL: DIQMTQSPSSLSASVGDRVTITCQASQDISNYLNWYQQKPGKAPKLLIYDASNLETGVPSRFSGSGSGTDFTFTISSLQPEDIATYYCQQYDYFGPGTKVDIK
B6: G001_gp1_V10_VRC01c_2021-0135 (antibody, V domains shown)
VH: QVQLVQSGAEVKKPGASVKVSCKASGYTFTDYYMHWVRQAPGQGLEWMGWINPSSGGTNYAQKFQDWVTMTRDTSISTAYMELSRLRSDDTAVYYCATVAPAAATWGFDSWGQGTLVTVSS
VL: DIQTTQSPSSLSASVGDRVTITCQASQDISNHLNWYQQKPGKGPKLLIYDASNLKTGVPSRFSGSGSGTDFTFIISSLQPEDIATYYCQQYEFFGPGTKVDIK
B7: G001_gp1_V10_VRC01c_2021-0125 (antibody, V domains shown)
VH: QVQLVQSGAEVKKPGASVKVSCKASGYTFTGYYIHWVRQAPGQGLEWMGWLNPNSGGTNYLQKFQDRVTMTRDTSIGTAYMELSTLRSDDTAVYYCARGNSGPWAWRYWGQGTLVTVSS
VL: QSALTQPASVSGSPGQSITISCTGTSSDVGGYNSVSWYQQHPGKAPKLMIYDVSNRPSGVSNRFSGSKSGNTASLTISGLQPEDEADYYCSSYEVFGGGTKLTVL
B8: G001_gp1_V10_VRC01c_2021-0131 (antibody, V domains shown)
VH: QVQLVQSGAEVKKPGASVKVSCEASGYTFTDYYIHWVRQAPGQGLEWMGWINPSSGGTNYAQKFQGWVTMTRDTSISTAYMELSRLTSDDTAFYYCARGLGRQWEWGYWGQGTLVTVSS
VL: DIQMTQSPPSLSASVGDRVTITCQASQDISKYLNWYQQKAGKAPKLLIYDVSNLETGVPSRFSGSGSGTDFTFTISSLQPEDIATYYCQQYEFFGQGTRLEIK
B9: G001_gp1_V10_VRC01c_2021-0127 (antibody, V domains shown)
VH: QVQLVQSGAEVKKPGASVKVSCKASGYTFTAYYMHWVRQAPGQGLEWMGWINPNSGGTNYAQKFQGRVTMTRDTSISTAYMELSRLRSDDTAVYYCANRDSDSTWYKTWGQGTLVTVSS
VL: DIQMTQSPSSLSASVGDRVTITCQASQDITNHLNWYQQKPGKAPKLLIYDASNLETGVPSSFSGSGSGTDFTFTISSLQPEDVATYYCQQYVTFGGGTKVEIK
B10: G001_gp1_V10_VRC01c_2021-0128 (antibody, V domains shown)
VH: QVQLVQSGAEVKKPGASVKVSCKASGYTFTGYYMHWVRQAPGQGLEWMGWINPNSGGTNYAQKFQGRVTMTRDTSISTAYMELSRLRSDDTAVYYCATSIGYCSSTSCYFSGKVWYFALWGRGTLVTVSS
VL: DIQMTQSPSSLSASVGDRVTITCQASQDISNYLNWYQQKPGKAPNLLIYDASNLETGVPSRFSGSGSGTDFTFTITSLQPEDIATYYCQQYETFGQGTNLEIK
B11: G001_gp1_V10_VRC01c_2021-0134 (antibody, V domains shown)
VH: QVQLVQSGAEVKKPGASVKVSCEASGYTFTGSYMHWVRQAPGQGLEWMGWINPNSGGTNYAQKFQGRVTMTRDTSITTAYMELSRLRSDDTAVYYCATRAAATNWYFDLWGRGTLVTVSS
VL: DIQMTQSPSSLSASVGDRVTITCQASQDINNHLNWYQQKPGKALKLLIYDASNLQTGVPSRFSGSGSGTDFTFTISSLQPEDIATYYCQQYEFFGGGTKVEIG
B12: G001_gp1_V10_VRC01c_2021-0130 (antibody, V domains shown)
VH: QVQLVQSGAEVKKPGASVKVSCKASGYTFTGYYMHWVRQAPGQGLEWMGWINPKSGGTNYAQKFQDWVTMTRDTSISTAYMELSRLRSDDTAVYYCARARVEPGSSWLWGYWGQGTLVTVSS
VL: DIQMTQSPSSLSASVGDRVTITCQASQDISNYLNWYQQKPGKAPKLLIYDVSNLETGVPSRFSGSGSGTDFTFTISSLQPEDIATYYCQQYETFGGGTKVEIK
B13: G001_gp1_V10_VRC01c_2021-0132 (antibody, V domains shown)
VH: QVQLVQSGAEVKKPGASVKVSCQASGYTFTAYHMHWVRQAPGQGLEWMGWINPTSGGTNYAQKFQGRVTMTRDTSITTAYMDLTRLRSDDTAVYYCARHRGGWFFDLWGRGTLVTVSS
VL: DIQMTQSPSSLSASVGDRVTITCQASQDISNYLNWYQQKPGKAPNLLIYDASNLEAGVPSRFSGSGSGTDFTFTISSLQPEDIATYYCQQYETFGQGTKLEIR
B14: G001_gp1_V10_VRC01c_2021-0137 (antibody, V domains shown)
VH: QVQLVQSGAEVKKPGASVKVSCKASGYTFTGYYMYWVRQAPGQGFEWMGWLNPNSGGTNYAQKFQGRVTMTRDTSISTAYMELSRLRSDDTAVYYCARVTSGSGWAFDYWGQGTLVTVSS
VL: DIQMTQSPSSLSASVGDRVTITCQASQDISNNLNWYQQKPGKAPKLLIYDVSNLETGVPSRFSGSGSGTDFTFTISSLQPEDIATYYCQQYGTFGGGTKVEIK
B15: G001_gp1_V10_VRC01c_2021-0136 (antibody, V domains shown)
VH: QVQLVQSGAEVKKPGASVKVSCTASGYTFTGYYMHWVRQAPGQGLEWMGWINPNSGGTNYAQKFQGWVTMTRDTSINTAYMELSRLRSDDTAVYYCARARSGYSSGWYWAYWGQGTLVTVSS
VL: DIQMTQSPSSLSASVGDRVTITCQASQDISNHLNWYQQKPGKAPKLLIYDASNLETGVPSRFSGSGSGTDFTFTISSLQPEDIATYYCQQYEFFGGGTKVEIT
B16: G001_gp1_V10_VRC01c_2021-0133 (antibody, V domains shown)
VH: QVQLVQSGPEVKKPGASVKVSCTASGFSFTGYYIHWLRQAPGPGLEWMGWINPNSGGTNYAQIFQDRVTMTRDTSISTAYMELSRLRSDDTAVYYCARVSVTTVWYFDLWGRGTLVTVSS
VL: DIQMTQSPSSLSASVGDRVTITCQASQDISNYLNWYQQKPGKAPKLLIYDVFNLETGVPSRFSGSGSGTDFTFTISSLQPEDIATYYCQQYETFGGGTKVEIK
B17: G001_gp1_V10_VRC01c_2021-0124 (antibody, V domains shown)
VH: QVQLVQSGAEVKKPGASVKVSCKASGYTFTGYYMHWVRQAPGQGLEWMGWINPNSGGTNYARKFQGWVTMTRDTSIGTAYMELSRLRSDDTAVYYCAKSRSRDDTWLFDYWGQGTLVTVSS
VL: DIVMTQSPDSLAVSLGERATINCKSSRSVLYSSNNKNFLTWYQQKPGQPPKLLIYWASTRESGVPERFSGSGSGTDFTLTISSLQAEDVAVYYCQQYESFGQGTKLEIK

The first experiment concerns the target eOD-GT8 (engineered outer domain germline-targeting version 8), monomer (HIV-1 gp120 engineered outer domain, …). The experiment can be described thus: SPR. The following applies: both partners purified.
As to B1, binding was characterised by a dissociation constant (Kd) of 0.15 nM. That is a sub-nanomolar value.

As to B2, the Kd is 0.13 nM.

B3 yielded a Kd of 0.437 nM. Against the preceding molecule, the Kd is about 3.4-fold higher.

In the case of B4, the affinity, expressed as Kd, was 1.76 nM.

For a further experiment the target is unchanged.
Assay: not given
Conditions: not given
As for B5, the binding result is reported as “binds”.

For the molecule B6, the binding result is recorded as “binds”.

In the case of B7, the binding result is reported as “binds”.

Consider B8, for which the binding result was “binds”.

Take B9: the binding result was “binds”.

B10: the binding result was “binds”.

For the molecule B11, the binding result was “binds”.

As to B12, the binding result is reported as “binds”.

With B13, the binding result is “binds”.

Turning to B14, the binding result is “binds”.

As to B15, the binding result was “binds”.

B16: the binding result was “binds”.

With B17, the binding result was “binds”.
